# Tests used:
# [1] = Western blot of medium; conditions: glycan lost, control: untreated CHO-S cells
# [2] = loss of cortisol-binding capacity after protease incubation; conditions: glycan lost; control: un-mutated CBG
# [3] = Western blot of culture medium; conditions: glycan lost; control: rat CBG
Protein,"expression_or_secretion, other: % of untreated ([1]; same construct)",other: protease susceptibility [2],other results
human CBG (corticosteroid-binding globulin): tunicamycin (human CBG) (protein) parent chain: MPLLLYTCLLWLPTSGLWTVQAMDPNAAYVNMSNHHRGLASANVDFAFSLYKHLVALSPKKNIFISPVSISMALAMLSLGTCGHTRAQLLQGLGFNLTERSETEIHQGFQHLHQLFAKSDTSLEMTMGNALFLDGSLELLESFSADIKHYYESEVLAMNFQDWATASRQINSYVKNKTQGKIVDLFSGLDSPAILVLVNYIFFKGTWTQPFDLASTREENFYVDETTVVKVPMMLQSSTISYLHDSELPCQLVQMNYVGNGTVFFILPDKGKMNTVIAALSRDTINRWSAGLTSSQVDLYIPKVTISGVYDLGDVLEEMGIADLFTNQANFSRITQDAQLKSSKVVHKAVLQLNEEGVDTAGSTGVTLNLTSKPIILRFNQPFIIMIFDHFTWSSLFLARVMNPV,decreases,,
human CBG (corticosteroid-binding globulin): tunicamycin (CBG N238) (protein) parent chain: MPLLLYTCLLWLPTSGLWTVQAMDPNAAYVNMSNHHRGLASANVDFAFSLYKHLVALSPKKNIFISPVSISMALAMLSLGTCGHTRAQLLQGLGFNLTERSETEIHQGFQHLHQLFAKSDTSLEMTMGNALFLDGSLELLESFSADIKHYYESEVLAMNFQDWATASRQINSYVKNKTQGKIVDLFSGLDSPAILVLVNYIFFKGTWTQPFDLASTREENFYVDETTVVKVPMMLQSSTISYLHDSELPCQLVQMNYVGNGTVFFILPDKGKMNTVIAALSRDTINRWSAGLTSSQVDLYIPKVTISGVYDLGDVLEEMGIADLFTNQANFSRITQDAQLKSSKVVHKAVLQLNEEGVDTAGSTGVTLNLTSKPIILRFNQPFIIMIFDHFTWSSLFLARVMNPV,decreases,,
rat CBG: tunicamycin (protein) parent chain: MSLALYTCLLWLCTSGLWTAQASTNESSNSHRGLAPTNVDFAFNLYQRLVALNPDKNTLISPVSISMALAMVSLGSAQTQSLQSLGFNLTETSEAEIHQSFQYLNYLLKQSDTGLEMNMGNAMFLLQKLKLKDSFLADVKQYYESEALAIDFEDWTKASQQINQHVKDKTQGKIEHVFSDLDSPASFILVNYIFLRGIWELPFSPENTREEDFYVNETSTVKVPMMVQSGSIGYFRDSVFPCQLIQMDYVGNGTAFFILPDQGQMDTVIAALSRDTIDRWGKLMTPRQVNLYIPKFSISDTYDLKDMLEDLNIKDLLTNQSDFSGNTKDVPLTLTMVHKAMLQLDEGNVLPNSTNGAPLHLRSEPLDIKFNKPFILLLFDKFTWSSLMMSQVVNPA,,,"expression_or_secretion, other: % of untreated [1]: decreases"
human CBG (corticosteroid-binding globulin): N347Q (protein) parent chain: MPLLLYTCLLWLPTSGLWTVQAMDPNAAYVNMSNHHRGLASANVDFAFSLYKHLVALSPKKNIFISPVSISMALAMLSLGTCGHTRAQLLQGLGFNLTERSETEIHQGFQHLHQLFAKSDTSLEMTMGNALFLDGSLELLESFSADIKHYYESEVLAMNFQDWATASRQINSYVKNKTQGKIVDLFSGLDSPAILVLVNYIFFKGTWTQPFDLASTREENFYVDETTVVKVPMMLQSSTISYLHDSELPCQLVQMNYVGNGTVFFILPDKGKMNTVIAALSRDTINRWSAGLTSSQVDLYIPKVTISGVYDLGDVLEEMGIADLFTNQANFSRITQDAQLKSSKVVHKAVLQLNEEGVDTAGSTGVTLNLTSKPIILRFNQPFIIMIFDHFTWSSLFLARVMNPV,,increases,
human CBG (corticosteroid-binding globulin): T349A (protein) parent chain: MPLLLYTCLLWLPTSGLWTVQAMDPNAAYVNMSNHHRGLASANVDFAFSLYKHLVALSPKKNIFISPVSISMALAMLSLGTCGHTRAQLLQGLGFNLTERSETEIHQGFQHLHQLFAKSDTSLEMTMGNALFLDGSLELLESFSADIKHYYESEVLAMNFQDWATASRQINSYVKNKTQGKIVDLFSGLDSPAILVLVNYIFFKGTWTQPFDLASTREENFYVDETTVVKVPMMLQSSTISYLHDSELPCQLVQMNYVGNGTVFFILPDKGKMNTVIAALSRDTINRWSAGLTSSQVDLYIPKVTISGVYDLGDVLEEMGIADLFTNQANFSRITQDAQLKSSKVVHKAVLQLNEEGVDTAGSTGVTLNLTSKPIILRFNQPFIIMIFDHFTWSSLFLARVMNPV,,increases,
rat CBG: N230D (protein) parent chain: MSLALYTCLLWLCTSGLWTAQASTNESSNSHRGLAPTNVDFAFNLYQRLVALNPDKNTLISPVSISMALAMVSLGSAQTQSLQSLGFNLTETSEAEIHQSFQYLNYLLKQSDTGLEMNMGNAMFLLQKLKLKDSFLADVKQYYESEALAIDFEDWTKASQQINQHVKDKTQGKIEHVFSDLDSPASFILVNYIFLRGIWELPFSPENTREEDFYVNETSTVKVPMMVQSGSIGYFRDSVFPCQLIQMDYVGNGTAFFILPDQGQMDTVIAALSRDTIDRWGKLMTPRQVNLYIPKFSISDTYDLKDMLEDLNIKDLLTNQSDFSGNTKDVPLTLTMVHKAMLQLDEGNVLPNSTNGAPLHLRSEPLDIKFNKPFILLLFDKFTWSSLMMSQVVNPA,,,expression_or_secretion [3]: no change
